# Results as given in patent publication US20240218057A1 (ROCKEFELLER UNIVERSITY, published 2024).
# Numbering of substitutions follows the chain as printed.
# B1: C1012 (antibody, V domains shown)
# VH: QVQLVQSGAEVKKPGSSVKVSCKASGGTVNNYAINWVRQAPGQGLEWMGGIVPIFGTPNYAQKFQGRVTITADESTSTAYMELSSLRSEDTAVYYCAKVSLTLPIAAAPRFWFDSWGQGTLVTVSS
# VL: EIVMTQSPATLSVSPGERATLSCRASQSVSSHLAWYQQKPGQAPRLLIYGASTRATGIPARFSGSGSGTEFTLTISSLQSEDFAVYYCQQYHNWPPALTFGGGTKVEIK
# B2: C1013 (antibody, V domains shown)
# VH: QVQLVQSGVEVKKPGSSVKVSCKASGGTFTDYAFSWVRQAPGQGLEWMGGIVPIFATPDYAEKFRGRVTITADESTSTAYMELSTLKSEDTAVYYCARASLTLPIRAAPRFWFDAWGQGTLVTVSS
# VL: B1 VL with S28G, S31T, N93K
# B3: C1014 (antibody, V domains shown)
# VH: QVQLQESGPGLVRPSQTLSLTCTVSGGSIGSGAYWSWIRQHPAKGLEWIGYVYYSGSTFYNPSLETRVSISVDISKDQFSLELTSVTVADTAVYYCAREKIEVVSIEMRPHYYGIDVWGQGTTVTVSS
# VL: EIVMTQSPATLSVSPGERATLSCRASQSISSNLAWYQQKPGQPPRLLIYGASTRATGIPARFSGSGSGTEFTLTISSLQSEDIAVYYCQHYNNWPPWTFGQGTKVDIK
# B4: C1016 (antibody, V domains shown)
# VH: QVQLQESGPGLVKPSGTLSLTCAVSGGPISSNHWWSWVRQPPGKGLEWIGEVYRNGNTNYHPSLKSRVTMSIDNSKNQFSLSLTSVTAADTAVYYCARGGDLAMGPEYLDFWGQGTLVTVSS
# VL: QSALTQPASVSGSPGQSITISCTGTSSDVGANNYVSWYQQHPGKAPKLMIYDVINRPSGVSDRFSGSKSGNTASLTISGLQAEDEADYYCSSFSTSSTLLFGGGTKLTVL
# B5: C1018 (antibody, V domains shown)
# VH: QVQLVESGGGVVQPGRSLRLLCAASGFTFNTHGMHWVRQAPGKGLEWVAVIWFDGSNKYYADSVKGRFTISRDNSTNTLYLQMNSLRAEDTAVYYCARVYGGLPYYYAIDVWGQGTTVTVSS
# VL: QSVLTQPPSVSGAPGQRVTISCAGSSSNIGAGYGVHWSQQLPGRPPKLLIYGDSNRPSGVPDRFSGSNSGTSASLAITGLQAEDEAVYYCQSYDRSLRAWVFGGGTKLSVL
# B6: C1019 (antibody, V domains shown)
# VH: QVQLVESGGGVVQPGTPLRLSCAASGFTFSSYAMHWVRQAPGKGLEWVAMISYDGGNKYYADSVKGRFTISRDNSKNTLFLQMNSLRGEDTAVYYCARSFSIRIGHKDNWGQGTLVTVSS
# VL: NFMLTQPHSVSESPGKTVTISCTGSSGSIANNYVQWYQQRPGSAPTPVIYEDDQRPSGVPDRFSGSIDSSSNSASLSISGLKTEDEADYYCQSYDSTNFWVFGGGTKLTVL
# B7: C1020 (antibody, V domains shown)
# VH: QVQLVQSGAEVKKPGASVKISCKASGYSFSNYYIHWVRQAPGQGLEWMGIINPSGNSISYAQKFQGRVTMTGDTSTSTVYMELSSLRSEDTAVYYCARSVFPVPAAGGCDYWGQGTLVTVSS
# VL: DIQMTQSPSSLSASVGDRVTITCRASQSITTSLNWYQQKPGKAPKLLIYSASTLESGVPSRFSGSGSGTDFTLTISSLQPEDFATYYCQQTYRAPPYTFGQGTKLEIK
# B8: C1021 (antibody, V domains shown)
# VH: QVQLVQSGAELKKPGASVKVSCKASGYTFSTYYIHWVRQAPGQGLEWMGIINPEAGSTSYAQKFQGRVTMTTDTSTSTVYMELISLRSQDTAIYYCARDAVGVPAINSLEYWGQGTLVTVSS
# VL: EIVLTQSPATLSLSPGERATLSCRASQSISSYLAWYQQKPGQAPRLLIYDASNRATDISARFSGSGSGTDFTLTISSLEPEDFAVYYCQHRSNWPPSFTFGGGTKVEIK
# B9: C1022 (antibody, V domains shown)
# VH: QVQLVQSGAEVKTPGASVKVSCQASGDTFTSQYLHWVRQAPGQGLEWMGIINPTAGSTTYAQKFQGRVTMTRDTSTSTVYMELRSLRSEDMAVYYCARGGFIPMVRGFIDHWGQGTLVTVSS
# VL: QSALTQPASVSGSPGQSITISCTGTSSDVGGYNYVSWYQQHPGKAPKLMIYDVSNRPSGVSTRFSGSKSGNTASLTISGLQAEDEADYYCSSPTSSNTHVFGTGTKVTVL
# B10: C1023 (antibody, V domains shown)
# VH: QVQLVQSGAEMKKPGASVKISCKASGDTFTTNYFHWVRQAPGQGLEWMGIINPSAGSTTYAQRFQGRVTMTGDSSTNTVYLELRSLRSEDTAMYFCAKGSYIPAMRSSFDPWGQGTLVTVSS
# VL: EIVLTQSPGTLSLSPGERATLSCRASQSVSHRYLAWYQQKPGQAPRLLIDGASNRATGIPDRFSGSGSGTDFTLTISRLEPEDFGVYYCQQYGSSPPFTFGQGTKLEIK
# B11: C1024 (antibody, V domains shown)
# VH: QVQLVESGGGVVQPGRSLRLSCAASGFTFSDYAMHWVRQAPGKGLEWVAMISYDGNSQYYADSVKGRFTISRDNSKNTLYLQMNILRPEDTAVYYCARTFSIRIGHHDYWGQGTLVTVSS
# VL: B6 VL with N31S, Q35H, P47T, Y50F, D53N, S77T, T97S, N98S
# B12: C903 (antibody, V domains shown)
# VH: EVQLVESGGGLIQPGGSLRLSCAASGFIVSRNYMSWVRQAPGKGLEWVSIIYSGGSTFYADSVKGRFTISRDNSKNTVYLQMNSLRAEDTAVYYCARDYGDFYFDYWGQGTLVTVSS
# VL: EIVLTQSPGTLSLSPGERATLSCRASQSVSSSYLAWYQQKPGQAPRLLIFDVSSRATGIPDRFSGSGSGTDFTLTISRLEPEDFAVYYCQQYGSSPRTFGQGTKVEIK
# B13: C904 (antibody, V domains shown)
# VH: QVQLQQWGAGLLKPSETLSLTCAVNGGSLSLYYWSWIRQSPGKGLEWIGEINHFGGSDYKPSLKSRVSISVDTSTNQFSLKLSSVTAADTAVYYCARKPLLHSNISPGAFDIWGQGTMVTVSS
# VL: EIVLTQSPGTLSLSPGERATLSCRASQSVAGSYLAWYQQKPGQAPRLLIYGASSRATGVPDRISGSGSGTDFTLTISRLEPEDFAVYYCQQYTNTPRTFGGGTKVEI
# B14: C905 (antibody, V domains shown)
# VH: QVQLQESGPGLVTPSQTLSLTCSVSGGSIHSRDFYWGWIRQHPGKGLEWIGHIYYTGNTYYNPSLKSRVTISADTSKNQFSLKLSSVTAADTAVYYCARATVVITLHWFDPWGQGTLVTVSS
# VL: NFMLTQPHSVSESPGKTVTISCTGSGGSIASNYVQWYQQRPGSAPTTVIYEDNERPSGVPDRFSGSIDSSSNSASLTISGVKTEDEADYFCQSYDVGNPVIFGGGTKLTVL
# B15: C906 (antibody, V domains shown)
# VH: EVQLVESGGGLIKPGRSLRLSCTASGFTFGDYAMTWFRQAPGKGLEWVGFIRSKAYGGTTGYAASVKYRFTISRDDSKSIVYLQMDSLKTEDTAVYYCTRWDGWSQHDYWGQGTLVTVSS
# VL: DIVMTQSPLSLSVTPGEPASISCRSSQSLLHSNGINYFDWYLQKPGQSPQLLIYLGSNRASGVPDRFSGSGSGTDFTLKISRVEAEDVGVYYCMQVLQIPYTFGQGTKLEI
# B16: C907 (antibody, V domains shown)
# VH: QVQLQESGPGLVKPSETLSLTCTVSGGSITSYYWTWIRQSPGKGLEWIGYIYYIGSTNYNPSLKSRLTISLATSKNQFSLRLNSVTAADTAVYYCASYYNDTSGYSYGLDVWGQGTTVTVSS
# VL: DIQMTQSPSSLSAFVGDRVTITCRAGQSISSYLHWYQQKPGKAPKLLIYATSTLQSGVPSRFSGRGSGTDFTLTISGLQPEDFATYYCQQSYSTPQTFGQGTKVEIK
# B17: C908 (antibody, V domains shown)
# VH: EVQLVQSGAEVKKPGESLKISCKASGYSFTIYWIGWVRQMPGKGLEWMGIIYPGESETRYSPSFQGQVTISADKSISTAYLQWRSLKASDTAMYYCARGGPPGGVKLELTDYWGQGTLVTVSS
# VL: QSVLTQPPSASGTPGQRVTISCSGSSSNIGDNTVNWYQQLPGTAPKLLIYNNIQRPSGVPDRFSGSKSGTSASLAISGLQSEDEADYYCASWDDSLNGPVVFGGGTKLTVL
# B18: C909 (antibody, V domains shown)
# VH: QVQLVQSGAEVKKPGASVKVSCRASGYTFPNYDLNWVRQATGQGLEWMGWMNPNSGNTGYAQKFQGRITMTRITSISTAYMELSSLRSEDTAVYYCARGRANWNSNFLLDSWGQGTLVTVSS
# VL: QSALTQPASVSGSPGQSITISCTGTSSDVGGYNLVSWYQQYPGNVPKLMIYEDAKRPSGVSNRFSGSKSANTASLTISGLQAEDEADYYCCSYAGSSTRYVFGTGTKVTVL
# B19: C910 (antibody, V domains shown)
# VH: QVQLVQSGAAVKKPGASVKVSCKASGYTFTSYDINWVRQAPGQGLEWMGWMNPNSGNTGFAQRFQGRATLSRDTSITTAYMELTTLRSEDTAVYYCARGRANYNSKFLLDNWGQGTLVTVSS
# VL: QSALTQPASVSGSPGQSITISCTGTSSDVGSYNLVSWYQQHPGTAPKLMIYEGSKRPSGVSDRFSGYKSGNTASLTISGLQADDEADYYCCSFAGSTTRYVFGTGTRVTVL
# B20: C911 (antibody, V domains shown)
# VH: QVQLVESGGGVVQPGGSLRLSCAASAFTFSSYAMHWIRQSPGKGLEWVAVISSDGSSKFYADSVKGRFTISRDNSKNTLYLQMNSLSAEDTAVYYCARDLENVLIEVALQDWGQGTLVTVSS
# VL: DIQMTQSPSSLSASVGDRVTITCRASQSINSYLNWYQQKPGKAPKLLIYAASSLHSGVPSRFSGSGSGTDFTLTISSLQPEDFATYYCQQSYTTLALTFGGGTKVEIK
# B21: C912 (antibody, V domains shown)
# VH: QVQLVESGGGVVQPGRSLRLSCAASGFSFSTYTMHWVRQTPDKGLEWVAVISDDGKNKYYADSMKGRFTISRDNSKNTLYLQMSSLRPEDTAVYYCARDLENVMIEVALESWGQGTLVTVSS
# VL: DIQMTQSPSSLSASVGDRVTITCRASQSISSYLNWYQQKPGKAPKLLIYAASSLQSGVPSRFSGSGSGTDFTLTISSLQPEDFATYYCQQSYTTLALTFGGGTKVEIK
# B22: C913 (antibody, V domains shown)
# VH: EVQLVESGGVVVQPGGSLRLSCAASGFTFDDYSMHWVRQVPGKGLEWIAVIFWDGTSTYYADSVKGRFTISRDNSKKSLYLQMNSLRSEDTALYYCAKDSEDCSSTSCYVDHWGQGTLVTVSS
# VL: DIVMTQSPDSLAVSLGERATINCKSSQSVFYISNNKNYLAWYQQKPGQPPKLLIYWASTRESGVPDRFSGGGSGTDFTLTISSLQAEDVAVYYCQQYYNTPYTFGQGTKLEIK
# B23: C914 (antibody, V domains shown)
# VH: QVQLQESGPGLVKPSQTLSLTCTVSGGSITSGDYYWTWIRQPPGKGLEWIGYIYYSGNTYYNLSLRSRITISEDTSKNQFSLKLRSVTAADTAVYYCARAMITFGGVIVVLDYWGQGTLVTVSS
# VL: QSALTQPPSASGSPGQSVTISCTGTSTDVGGYNFVSWYQQHPGKAPKLMIYEVSKRPSGVPDRFSGSKSGNTASLTVSGLQAEDEADYYCSSYAGSNILYVFGTGTKVTVL
# Molecular target: T1, SARS-COV-2 RBD (SARS-COV-2, UniProt P0DTC2 319-539)
# T1 construct: also called WT RBD
# Experiment: ELISA, RBD coated on plate
row,Binder,EC50 [ng/mL]
1,B1,3.29
2,B2,8.92
3,B3,2.95
4,B4,2.16
5,B5,3.09
6,B6,2.8
7,B7,2.06
8,B8,2.53
9,B9,1.66
10,B10,1.13
11,B11,2.37
12,B12,2.54
13,B13,3.31
14,B14,3.06
15,B15,1.07
16,B16,3.71
17,B17,1.27
18,B18,3.24
19,B19,2.47
20,B20,2.36
21,B21,2.45
22,B22,2.58
23,B23,1.59
